Assay results: article PMC3533786 (Molecular Microbiology, 2012)

Experiments:
[1] = biological target: Tse1 (Pseudomonas aeruginosa) (UniProt Q9I2Q1); settings: cited from earlier work
[2] = biological target: Rap1a (Resistance associated protein 1a), without its N-terminal signal peptide, His6-tagged (Serratia marcescens Db10); test: SEC + other: quantitative in-gel SYPRO Orange staining
[3] = biological target: Rap2a (Resistance associated protein 2a), without its N-terminal signal peptide, His6-tagged (Serratia marcescens Db10); test: SEC
[4] = biological target: Rap2b (Resistance associated protein 2b), without its N-terminal signal peptide, His6-tagged (Serratia marcescens Db10); test: SEC
[5] = biological target: Rap1a (Resistance associated protein 1a), without its N-terminal signal peptide, His6-tagged (Serratia marcescens Db10); test: SEC
SEC = biological target: the molecule itself; test: SEC

Tsi1 (from UniProt Q9I2Q0)
Kd [1]: 3 nM

Ssp1 (Secreted small protein 1), His6-tagged recombinant (natural protein)
stoichiometry N (Ssp1 per Rap1a (molar)) [2]: 1

Rap2a (Resistance associated protein 2a), without its N-terminal signal peptide, His6-tagged (natural protein)
stoichiometry N [3]: 2

Rap2b (Resistance associated protein 2b), without its N-terminal signal peptide, His6-tagged (natural protein)
stoichiometry N [4]: 2

Rap1a (Resistance associated protein 1a), without its N-terminal signal peptide, His6-tagged (natural protein)
stoichiometry N [5]: 2

B1: Rap1b (Resistance associated protein 1b), without its N-terminal signal peptide, His6-tagged (natural protein)
chain: APIQDPVAFIKQMPYHQVVKELALSRCLAQVSDSDKAFSLDAARTANAMREWMPFDIESGDEKINVLIDKYKSRINEFHSETKDKSQGVTLNCLRLYHSPELDKLSRQLIAGNPDRTWNQDNAK
modifications: disulphide bond Cys54-Cys120
stoichiometry N (SEC): 2
